# Assay results as given in paper PMC5898216 (Nature communications, 2015).
# T1: PriSL heterodimer (PriS and PriL), recombinant (S. solfataricus, UniProt Q97Z83 1-330; Q9UWW1 1-307)
# T1 sequence (looked up) 1: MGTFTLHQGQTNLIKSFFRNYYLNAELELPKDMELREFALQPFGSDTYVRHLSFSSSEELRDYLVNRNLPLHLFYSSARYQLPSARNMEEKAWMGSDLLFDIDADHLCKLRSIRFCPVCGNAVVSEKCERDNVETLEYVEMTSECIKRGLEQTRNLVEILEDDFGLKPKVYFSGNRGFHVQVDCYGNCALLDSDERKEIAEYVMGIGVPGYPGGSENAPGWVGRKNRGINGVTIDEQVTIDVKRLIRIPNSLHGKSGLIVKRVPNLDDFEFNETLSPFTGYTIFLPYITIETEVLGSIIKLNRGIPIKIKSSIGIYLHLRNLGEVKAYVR
# T1 sequence (looked up) 2: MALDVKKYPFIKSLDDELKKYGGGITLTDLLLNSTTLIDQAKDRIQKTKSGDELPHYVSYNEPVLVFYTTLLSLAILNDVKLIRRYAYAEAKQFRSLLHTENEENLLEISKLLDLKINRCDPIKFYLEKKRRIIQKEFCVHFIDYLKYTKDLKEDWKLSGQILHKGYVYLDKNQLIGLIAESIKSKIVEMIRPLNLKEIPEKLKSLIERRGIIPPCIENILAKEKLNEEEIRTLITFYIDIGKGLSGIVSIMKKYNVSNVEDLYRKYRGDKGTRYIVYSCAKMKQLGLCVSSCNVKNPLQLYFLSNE
# T2: PriS, primase catalytic subunit, recombinant (S. solfataricus, UniProt Q97Z83 1-330)
# T2 sequence (looked up): T1 sequence (looked up) 1
# B1: PriX (product of Sso0502), recombinant full-length protein (natural protein, S. solfataricus, UniProt Q97ZS7 1-154, looked up)
# chain: MSQEKKAKKIILHYPDDTPAGYIEYAEGSSSIYDNEGNFLFKVEGKFPPQPKKSSDYSWIEKVLEMGLQDSRKRFILYVASRYLVNVKGVNEDEALQTLKEFYYKLQSGKVYESWLKSVINGVKKKGLLPWSLKRIEERDKEMYNEIIRVLKNS
# B2: PriL, primase large noncatalytic subunit, recombinant (natural protein, S. solfataricus, UniProt Q9UWW1 1-307, looked up)
# chain: T1 sequence (looked up) 2
# Columns and labels:
# [1] = target: T1, PriSL heterodimer (PriS and PriL), …; test: SEC
# [2] = target: B2; test: ITC
# [3] = target: T2, PriS, primase catalytic subunit, …; test: SEC
binding result [1],stoichiometry N [2],binding result [3],Binder
binds,1,,B1
,,binds,B2
